The values that follow come from patent US20080085279A1.

In experiment [1] the target is Recombinant MDM2 (baculovirus-expressed, pBlueBacHis2:MDM2) (human) (UniProt Q00987). In words: cell-based or functional assay.
For experiment [2] the target is unchanged. In words: cell-based or functional assay. The source holds these as a separate data set.

Read-outs that look alike come from different tables or passages of the source.

Recombinant MDM2 (baculovirus-expressed, pBlueBacHis2:MDM2) (human), sequence (Q00987 whole entry): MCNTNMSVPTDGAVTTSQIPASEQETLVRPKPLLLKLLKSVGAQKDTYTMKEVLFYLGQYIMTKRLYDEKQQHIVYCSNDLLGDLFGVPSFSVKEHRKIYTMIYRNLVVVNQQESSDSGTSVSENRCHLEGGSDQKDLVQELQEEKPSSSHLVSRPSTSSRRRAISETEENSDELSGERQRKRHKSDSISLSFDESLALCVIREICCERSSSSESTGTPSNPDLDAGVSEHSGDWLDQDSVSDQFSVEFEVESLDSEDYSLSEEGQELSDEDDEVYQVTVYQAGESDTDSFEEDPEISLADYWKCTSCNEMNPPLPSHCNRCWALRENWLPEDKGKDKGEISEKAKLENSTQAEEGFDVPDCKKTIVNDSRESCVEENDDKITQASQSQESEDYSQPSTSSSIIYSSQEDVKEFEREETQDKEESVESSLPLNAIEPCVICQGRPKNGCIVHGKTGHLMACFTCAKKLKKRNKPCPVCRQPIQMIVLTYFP

As for “Recombinant hMTBP (bacterially expressed from pQE-hMTBP) (from UniProt Q96DY7 1-904)”, the values for the MDM2 auto-ubiquitination in vitro (molar ratio MTBP:MDM2) in experiment [1] and in experiment [2] were 10 and 3, respectively.
